Measurements as given in patent CN117007808A.

Molecular target: 融合蛋白gD-CD2v (猪伪狂犬病病毒 PRV HN1201; 非洲猪瘟病毒 ASFV SY18)

B1: 非洲猪瘟病毒CD2v蛋白单克隆抗体5G8 (antibody, V domains shown)
VH: YDHDYAKLGTELGSTSNGRQCAGIALTSRMKLWLNWVKQSHGKSLEWIGVIDPNNGGTTYNQKFKGKATLTVDKSSSTAYMEVRSLTSEYSAVYYCARYGKGIGLDYWGQGTSVTVSS
VL: DVVMTQTPLSLPVSLGDQASISCRSSQSLVHRNGNTYLHWYLQKPGQSPKLLIYKVSNRFSGVPDRFSGSGSGTDFTLKISRVEAVDLGVYFCSQSTHVPWTFGGGTKLEIK
阻断率: 91 %
